Data: paper PMC3266974 (Journal of Medicinal Chemistry, 2012)

Biological target: T1, bovine pancreas CPA (Bos taurus, UniProt P00730)
T1 sequence (P00730 111-419): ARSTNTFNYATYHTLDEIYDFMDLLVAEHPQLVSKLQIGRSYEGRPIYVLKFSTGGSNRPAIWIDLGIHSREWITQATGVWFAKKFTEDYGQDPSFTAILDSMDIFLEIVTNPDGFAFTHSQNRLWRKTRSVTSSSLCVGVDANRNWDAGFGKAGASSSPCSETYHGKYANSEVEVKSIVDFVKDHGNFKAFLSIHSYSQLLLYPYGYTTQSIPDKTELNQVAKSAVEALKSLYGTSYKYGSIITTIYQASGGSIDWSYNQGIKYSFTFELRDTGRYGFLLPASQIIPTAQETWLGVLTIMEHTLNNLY
Assay: Inhibition of CPA, colorimetric substrate N-
Assay type: biochemical
Settings: tested in duplicate, na = not active at 30 μM

Peptide 6: linear version of namalide (IFKF; not fully specified; Linear (uncyclized) namalide)
IC50: 4.5 ± 0.9 µM
